Reference: patent publication US20020076736A1, “Methods of affecting laminin 5 processing” (priority 2000, published 2002)

Experiments:
[1] = test system: collagen XVII
[2] = test system: type IV collagen
[3] = molecular target: unprocessed human laminin 5 (α3 chain of 200 kDa, β3 chain of 140 kDa, γ2 chain of 155 kDa) (UniProt Q16787)
Chain of unprocessed human laminin 5 (α3 chain of 200 kDa, β3 chain of 140 kDa, γ2 chain of 155 kDa) (Q16787 whole entry, looked up): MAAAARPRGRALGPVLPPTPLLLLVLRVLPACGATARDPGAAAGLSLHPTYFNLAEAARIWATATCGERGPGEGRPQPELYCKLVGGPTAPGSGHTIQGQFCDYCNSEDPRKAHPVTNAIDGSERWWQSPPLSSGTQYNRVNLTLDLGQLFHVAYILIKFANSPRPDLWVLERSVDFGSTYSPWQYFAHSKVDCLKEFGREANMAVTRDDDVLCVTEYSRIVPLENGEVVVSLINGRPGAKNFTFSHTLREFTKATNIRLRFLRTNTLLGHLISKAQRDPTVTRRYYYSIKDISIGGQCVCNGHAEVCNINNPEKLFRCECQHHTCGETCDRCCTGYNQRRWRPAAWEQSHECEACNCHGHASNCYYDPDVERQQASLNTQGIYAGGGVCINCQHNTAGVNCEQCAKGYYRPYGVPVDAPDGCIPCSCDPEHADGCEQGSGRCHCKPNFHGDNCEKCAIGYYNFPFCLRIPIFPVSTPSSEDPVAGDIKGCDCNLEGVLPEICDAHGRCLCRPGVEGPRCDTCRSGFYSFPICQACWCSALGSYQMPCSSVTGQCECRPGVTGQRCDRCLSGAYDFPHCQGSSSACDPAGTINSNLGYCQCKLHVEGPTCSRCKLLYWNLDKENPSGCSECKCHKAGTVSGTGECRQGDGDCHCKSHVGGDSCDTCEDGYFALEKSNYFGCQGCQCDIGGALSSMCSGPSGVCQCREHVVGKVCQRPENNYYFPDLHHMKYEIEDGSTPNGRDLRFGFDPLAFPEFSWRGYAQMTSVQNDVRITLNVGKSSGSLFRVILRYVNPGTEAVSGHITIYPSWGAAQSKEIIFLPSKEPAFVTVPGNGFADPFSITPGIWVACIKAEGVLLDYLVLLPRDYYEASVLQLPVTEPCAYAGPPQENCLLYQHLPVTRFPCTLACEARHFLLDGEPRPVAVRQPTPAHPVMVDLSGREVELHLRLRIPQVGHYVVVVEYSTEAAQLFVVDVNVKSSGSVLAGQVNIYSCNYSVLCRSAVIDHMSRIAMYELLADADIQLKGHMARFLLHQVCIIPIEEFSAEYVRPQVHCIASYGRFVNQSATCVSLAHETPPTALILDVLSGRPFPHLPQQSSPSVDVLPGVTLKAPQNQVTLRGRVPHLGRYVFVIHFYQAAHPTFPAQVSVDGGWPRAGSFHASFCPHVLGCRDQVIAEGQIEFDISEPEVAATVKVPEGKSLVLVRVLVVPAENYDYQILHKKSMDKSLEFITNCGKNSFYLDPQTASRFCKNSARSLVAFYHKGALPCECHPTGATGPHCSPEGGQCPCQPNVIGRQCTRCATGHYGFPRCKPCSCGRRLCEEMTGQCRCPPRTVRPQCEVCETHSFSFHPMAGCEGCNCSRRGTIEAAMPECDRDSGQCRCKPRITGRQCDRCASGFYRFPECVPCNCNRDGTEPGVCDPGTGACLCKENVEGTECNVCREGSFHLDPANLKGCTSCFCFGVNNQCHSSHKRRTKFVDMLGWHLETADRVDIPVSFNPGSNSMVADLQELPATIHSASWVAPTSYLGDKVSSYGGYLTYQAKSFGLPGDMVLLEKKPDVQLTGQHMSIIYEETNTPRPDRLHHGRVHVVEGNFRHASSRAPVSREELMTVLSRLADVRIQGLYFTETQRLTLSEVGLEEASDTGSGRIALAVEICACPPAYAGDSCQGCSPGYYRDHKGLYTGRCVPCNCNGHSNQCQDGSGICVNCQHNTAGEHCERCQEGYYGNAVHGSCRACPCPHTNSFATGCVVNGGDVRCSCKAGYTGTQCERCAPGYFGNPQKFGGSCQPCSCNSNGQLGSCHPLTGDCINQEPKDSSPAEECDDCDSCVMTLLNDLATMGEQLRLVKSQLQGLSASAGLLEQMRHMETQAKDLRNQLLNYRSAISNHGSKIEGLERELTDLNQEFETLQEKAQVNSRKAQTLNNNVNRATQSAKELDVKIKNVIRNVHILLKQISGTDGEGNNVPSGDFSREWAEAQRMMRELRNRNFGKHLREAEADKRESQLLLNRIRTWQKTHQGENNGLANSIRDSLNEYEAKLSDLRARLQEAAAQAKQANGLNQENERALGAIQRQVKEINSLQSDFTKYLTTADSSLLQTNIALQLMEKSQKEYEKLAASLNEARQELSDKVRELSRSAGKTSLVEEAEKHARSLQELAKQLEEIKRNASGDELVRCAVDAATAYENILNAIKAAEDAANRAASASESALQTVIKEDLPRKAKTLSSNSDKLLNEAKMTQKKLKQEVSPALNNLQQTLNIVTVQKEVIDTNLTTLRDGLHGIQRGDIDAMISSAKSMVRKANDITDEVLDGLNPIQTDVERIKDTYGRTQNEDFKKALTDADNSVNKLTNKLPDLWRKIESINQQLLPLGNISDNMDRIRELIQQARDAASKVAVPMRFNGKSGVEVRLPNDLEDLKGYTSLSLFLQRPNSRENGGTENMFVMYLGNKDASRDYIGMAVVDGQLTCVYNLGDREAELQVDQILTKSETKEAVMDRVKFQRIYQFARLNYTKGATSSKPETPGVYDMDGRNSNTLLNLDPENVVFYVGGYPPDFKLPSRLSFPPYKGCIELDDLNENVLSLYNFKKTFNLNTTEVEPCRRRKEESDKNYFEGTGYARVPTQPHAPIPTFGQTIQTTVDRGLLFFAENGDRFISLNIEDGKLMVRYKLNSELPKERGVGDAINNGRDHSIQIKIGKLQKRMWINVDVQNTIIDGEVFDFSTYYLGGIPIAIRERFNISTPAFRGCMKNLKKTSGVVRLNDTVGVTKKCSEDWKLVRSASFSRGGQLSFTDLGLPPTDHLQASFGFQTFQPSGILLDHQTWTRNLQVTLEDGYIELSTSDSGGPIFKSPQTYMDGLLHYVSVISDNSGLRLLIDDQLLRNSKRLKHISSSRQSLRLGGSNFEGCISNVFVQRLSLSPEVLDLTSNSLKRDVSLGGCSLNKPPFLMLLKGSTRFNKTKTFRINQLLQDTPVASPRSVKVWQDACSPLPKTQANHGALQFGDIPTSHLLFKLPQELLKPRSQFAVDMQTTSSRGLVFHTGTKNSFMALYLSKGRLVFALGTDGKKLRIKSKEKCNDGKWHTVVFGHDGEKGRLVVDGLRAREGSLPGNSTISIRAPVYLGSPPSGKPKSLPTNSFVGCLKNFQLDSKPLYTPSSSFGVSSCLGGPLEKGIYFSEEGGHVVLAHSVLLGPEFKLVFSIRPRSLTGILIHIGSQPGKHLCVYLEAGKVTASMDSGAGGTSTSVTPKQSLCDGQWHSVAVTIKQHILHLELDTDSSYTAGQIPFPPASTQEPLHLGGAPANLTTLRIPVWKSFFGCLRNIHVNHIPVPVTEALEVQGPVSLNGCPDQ

MMP-2
processing of collagen XVII [1]: it readily processed collagen XVII and collagen IV
digestion of type IV collagen (positive control, data not shown) [2]: MMP-2 completely digested an equimolar quantity of type IV collagen under the same conditions
processing of collagen IV [2]: it readily processed collagen XVII and collagen IV
cleavage of human laminin 5 [3]: it failed to cleave human laminin 5, even at six times the enzyme-to-substrate ratio used for BMP-1 cleavage studies
digestion of laminin 5 (100 ng/ml MMP-2, 37° C., 16 hours, western blot) [3]: no digestion of laminin 5 was seen with 100 ng/ml MMP-2 (over three times the amount of BMP-1 on a molar basis)
